B1: SA-5-57 Fab (Fab, V domains shown)
VH: EVQLLESGGGLVQPGGSLRLSCAASGFTFDSYAMSWVRQAPGKGLEWVSATSGGGGSTYHADPVKGRFTISRDNSKNTLYLQMNSLRAEDTAVYYCAKDITDDFWSVTPPYFDLWGRGTLVTVSS
VL: DIQLTQSPSSVSASVGDRVTITCRASQDISSWLAWYQQKPGKAPKLLIYAASSLQSGVPSRFSGSGSGTDFTLTISSLQPEDFATYYCQQGYIFPRTFGGGTKVEIK
notes: papain Fab
B2: SA-5-58 Fab (Fab, V domains shown)
VH: EVQLLESGGGLVQPGGSLRLSCAASGFTFDSYAMSWVRQAPGKGLEWVSAISGSGGSTYHADSVKGRFTISRDNSKNTLYLQMNSLRAEDTAVYYCAKDTGISLWSVTPPYFDLWGRGTLVTVSS
VL: DIQLTQSPSSVSASVGDRVTITCRASQDISSWLAWYQQKPGKAPKLLIYAASSLQSGVPSRFSGSGSGTDFTLTISSLQPEDFATYYCQQGYIFPRTFGGGTKVEIK
notes: papain Fab
B3: SA-56-87 Fab (Fab, V domains shown)
VH: EVQLVESGGGVVQPGRSLRLSCAASGFTFSYYGMSWVRQAPGKGLEWVASIWVDGSNKYYADSVKGRFTISRDNSKNTLYLQMNSLRAEDTAVYYCAFGLETYSGPNWFDPWGQGTLVTVSS
VL: DIQMTQSPSSVSASVGDRVTITCRASQGISSWLAWYQQKPGKAPKLLIYAASSLQSGVPSRFSGSGSGTDFTLTISSLQPEDFATYYCQQAIYFPITFGGGTKVEIK
notes: papain Fab
B4: SA-56-86 Fab (Fab, V domains shown)
VH: QVQLVESGGGVVQPGGSLRLSCAASGFTFSYYGMSWVRQAPGKGLEWVASIWVDGSSKYYADSVKGRFTISRDNSKNTLYLQMNSLRAEDTAVYYCARGVETYSGPNWFDPWGQGTLVTVSS
VL: DIQMTQSPSSVSASVGDRVTITCRASQGISSWLAWYQQKPGKAPKLLIYAASSLQSGVPSRFSGSGSGTDFTLTISSLQPEDFATYYCQQAIYFPITFGGGTKVEIK
notes: papain Fab
B5: SA-5-59 Fab (Fab, V domains shown)
VH: EVQLLESGGGLVQPGGSLRLSCAASGFTFDNYAMSWVRQAPGEGLEWVSAVSGSGGSTYYADSVRGRFTISRDNSKNTLYLQMDSLRAEDTAVYYCAKDTGIDFWARTPPYFDLWGRGTLVTVSS
VL: DIQLTQSPSSVSASVGDRVTITCRASQDISSWLAWYQQKPGKAPKLLIYAASSLQSGVPSRFSGSGSGTDFTLTISSLQPEDFATYYCQQGYIFPRTFGGGTKVEIK
notes: papain Fab
B6: SA-56-89 Fab (Fab, V domains shown)
VH: EVQLVESGGGVVQPGGSLRLSCAASGFTFSYYGMSWVRQAPGKGLEWVASIWVDGSNKYYADSVKGRFTVSRDNSKNTLYLQMDSLRAEDTAVYYCARGVETYSGPNWFDPWGQGTLVTVSS
VL: DIQMTQSPSSVSASVGDRVTITCRASQGISSWLAWYQQKPGKAPKLLIYAASSLQSGVPSRFSGSGSGTDFTLTISSLQPEDFATYYCQQAIYFPITFGGGTKVEIK
notes: papain Fab
B7: SA-56-88 Fab (Fab, V domains shown)
VH: EVQLVESGGGVVQPGRSLRLSCAASGFTFSYYGMSWVRQAPGKGLEWVASIWVDGSNKYYADSAKGRFTISRDNSKNTLYLQMNSLRAEDTAVYYCAEGKETYSGPNWFDPWGQGTLVTVSS
VL: DIQMTQSPSSVSASVGDRVTITCRASQGISSWLAWYQQKPGKAPKLLIYAASSLQSGVPSRFSGSGSGTDFTLTISSLQPEDFATYYCQQAIYFPITFGGGTKVEIK
notes: papain Fab
B8: SA-56-85 Fab (Fab, V domains shown)
VH: EVQLLESGGGVVQPGRSLGLSCAASGSTFSYYGMSWVRQAPGKGLEWVASIWVDGSNKYYADSVKGRFTISRDNSKSTLYLQMNSLRAEDTAVYYCARGVETYSGPNWFDPWGQGTLVTVSS
VL: DIQMTQSPSSVSASVGDRVTITCRASQGISSWLAWYQQKPGKAPKLLIYAASSLQSGVPSRFSGSGSGTDFTLTISSLQPEDFATYYCQQAIYFPITFGGGTKVENQ
notes: papain Fab

Columns and labels:
[1] = target: T1, human SIRPβ1 Fc fusion antigen (human, UniProt O00241 30-371); test: ForteBio Fab monovalent
T1 construct: not shown: human IgG1 Fc
T1 sequence (O00241 30-371 limits assumed): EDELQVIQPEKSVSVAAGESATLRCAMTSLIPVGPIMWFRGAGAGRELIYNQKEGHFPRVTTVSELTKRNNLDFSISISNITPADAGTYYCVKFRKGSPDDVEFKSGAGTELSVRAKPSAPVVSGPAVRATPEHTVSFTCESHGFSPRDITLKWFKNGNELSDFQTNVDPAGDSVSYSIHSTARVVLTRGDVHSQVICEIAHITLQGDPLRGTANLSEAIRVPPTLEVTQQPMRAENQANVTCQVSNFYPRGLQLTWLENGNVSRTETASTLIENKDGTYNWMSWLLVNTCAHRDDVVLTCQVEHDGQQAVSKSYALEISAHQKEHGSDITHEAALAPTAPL

[2] = target: T2, human SIRPA Fc fusion antigen (human, UniProt P78324 31-373); test: ForteBio Fab monovalent
T2 construct: heterologous signal peptide; not shown: human IgG1 Fc

[3] = target: T3, biotinylated human SIRPA (monomer) (human, UniProt P78324 31-373, limits assumed, biotinylated); test: MSD-SET, Fab, equilibrium;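 further: solution equilibrium titration, free antigen captured on antibody-coated MSD plates and detected by electrochemiluminescence with labeled streptavidin, percent free antigen versus titrated antibody fit to quadratic model for KD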
T3 construct: monomer made by IdeS cleavage of a SIRPA Fc fusion; also called recombinant human SIRPA
Description: Antibodies (20 nM in PBS) were coated onto standard bind MSD-ECL plates overnight at 4° C. or at room temperature for 30 min. Plates were then blocked with 1% BSA for 30 min with shaking at 700 rpm, followed by three washes with wash buffer (PBSF+0.05% Tween 20). SET samples were applied and incubated on the plates for 150s with shaking at 700 rpm followed by one wash. Antigen captured on a plate was detected with 250 ng/ml sulfotag-labeled streptavidin in PBSF by incubation on the plate for 3 min. The plates were washed three times with wash buffer and then read on the MSD Sector Imager 2400 instrument using 1× Read Buffer T with surfactant. The percent free antigen was plotted as a function of titrated antibody in Prism and fit to a quadratic equation to extract the KD. To improve throughput, liquid handling robots were used throughout MSD-SET experiments, including SET sample preparation.

Row | Binder | binding result [1] | Kd [2] [nM] | Kd [3] [nM]
1 | B1 | no binding (tested: 100 nM) | 23.3 | –
2 | B2 | no binding (tested: 100 nM) | – | –
3 | B3 | no binding (tested: 100 nM) | 1.1 | 0.17
4 | B4 | – | 1.02 | 0.18
5 | B5 | no binding (tested: 100 nM) | – | –
6 | B6 | no binding (tested: 100 nM) | 1.03 | 0.25
7 | B7 | no binding (tested: 100 nM) | 0.836 | 0.16
8 | B8 | no binding (tested: 100 nM) | 0.772 | 0.12

Reference: US20240270866A1 (Alector, published 2024)
